Results: article PMC10392983 (2023)

How the values were obtained:
p110γ-p84 complex = p110γ-p84 complex (human | mouse, UniProt P48736 1-1102; Q3U6Q4 1-756); assay: BLI
p110γ-p101 complex = p110γ-p101 complex (human | Sus scrofa (porcine), UniProt P48736 1-1102; O02696 1-877); assay: BLI
p110γ-p101 complex, sequence (P48736 whole entry, chain 1 of 2): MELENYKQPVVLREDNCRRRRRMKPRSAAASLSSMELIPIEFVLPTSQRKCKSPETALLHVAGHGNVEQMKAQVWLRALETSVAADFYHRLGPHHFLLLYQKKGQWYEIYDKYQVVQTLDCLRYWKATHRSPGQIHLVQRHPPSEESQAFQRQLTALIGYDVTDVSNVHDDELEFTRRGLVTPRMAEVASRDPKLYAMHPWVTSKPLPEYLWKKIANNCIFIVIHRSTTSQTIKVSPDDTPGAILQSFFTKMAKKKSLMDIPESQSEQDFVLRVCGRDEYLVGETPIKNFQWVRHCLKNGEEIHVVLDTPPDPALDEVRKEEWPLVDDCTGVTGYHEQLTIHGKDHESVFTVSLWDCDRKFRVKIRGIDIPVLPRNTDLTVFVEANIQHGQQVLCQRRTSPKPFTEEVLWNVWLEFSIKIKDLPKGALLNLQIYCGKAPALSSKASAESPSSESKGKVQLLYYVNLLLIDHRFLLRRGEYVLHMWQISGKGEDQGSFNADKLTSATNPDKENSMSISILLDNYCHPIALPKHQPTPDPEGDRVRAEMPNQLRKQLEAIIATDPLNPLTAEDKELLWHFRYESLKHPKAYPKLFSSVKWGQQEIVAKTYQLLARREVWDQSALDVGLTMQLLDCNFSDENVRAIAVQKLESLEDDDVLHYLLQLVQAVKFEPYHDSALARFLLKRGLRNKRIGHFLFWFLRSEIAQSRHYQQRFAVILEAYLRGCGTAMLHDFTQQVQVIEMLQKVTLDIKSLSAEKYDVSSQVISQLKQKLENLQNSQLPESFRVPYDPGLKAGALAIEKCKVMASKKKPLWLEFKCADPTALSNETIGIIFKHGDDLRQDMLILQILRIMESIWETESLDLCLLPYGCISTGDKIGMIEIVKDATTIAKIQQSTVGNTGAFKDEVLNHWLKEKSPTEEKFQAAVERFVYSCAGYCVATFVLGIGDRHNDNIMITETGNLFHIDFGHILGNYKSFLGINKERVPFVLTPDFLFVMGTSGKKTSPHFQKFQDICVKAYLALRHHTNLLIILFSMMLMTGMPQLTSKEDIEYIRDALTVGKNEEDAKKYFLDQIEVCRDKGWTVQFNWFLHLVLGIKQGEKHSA
p110γ-p101 complex, sequence (O02696 whole entry, chain 2 of 2): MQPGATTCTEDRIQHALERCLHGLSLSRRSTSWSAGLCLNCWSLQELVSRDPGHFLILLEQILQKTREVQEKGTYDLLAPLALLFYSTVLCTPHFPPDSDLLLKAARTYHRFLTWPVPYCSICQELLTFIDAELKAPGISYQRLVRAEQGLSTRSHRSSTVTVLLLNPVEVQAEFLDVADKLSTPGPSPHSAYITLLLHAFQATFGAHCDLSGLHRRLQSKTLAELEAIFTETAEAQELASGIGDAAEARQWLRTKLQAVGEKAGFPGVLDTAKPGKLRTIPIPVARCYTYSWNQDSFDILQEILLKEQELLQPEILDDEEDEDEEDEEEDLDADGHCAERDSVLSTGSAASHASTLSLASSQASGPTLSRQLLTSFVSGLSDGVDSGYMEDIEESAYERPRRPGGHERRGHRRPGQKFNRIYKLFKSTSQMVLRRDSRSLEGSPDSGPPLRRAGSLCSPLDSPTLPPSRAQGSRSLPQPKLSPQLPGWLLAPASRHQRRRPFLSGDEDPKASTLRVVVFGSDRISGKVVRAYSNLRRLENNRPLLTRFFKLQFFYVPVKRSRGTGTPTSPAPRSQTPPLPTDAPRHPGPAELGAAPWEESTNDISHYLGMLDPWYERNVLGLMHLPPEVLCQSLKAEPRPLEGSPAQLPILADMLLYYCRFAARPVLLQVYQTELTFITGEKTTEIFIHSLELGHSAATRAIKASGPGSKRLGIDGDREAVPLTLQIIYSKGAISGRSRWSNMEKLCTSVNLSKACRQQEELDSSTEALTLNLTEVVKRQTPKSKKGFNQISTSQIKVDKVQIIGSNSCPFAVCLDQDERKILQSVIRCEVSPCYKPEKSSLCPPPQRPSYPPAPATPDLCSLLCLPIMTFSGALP

p110γ-p84 complex, sequence (P48736 whole entry, chain 1 of 2): as the sequence (P48736 whole entry, chain 1 of 2) above
p110γ-p84 complex, sequence (Q3U6Q4 whole entry, chain 2 of 2): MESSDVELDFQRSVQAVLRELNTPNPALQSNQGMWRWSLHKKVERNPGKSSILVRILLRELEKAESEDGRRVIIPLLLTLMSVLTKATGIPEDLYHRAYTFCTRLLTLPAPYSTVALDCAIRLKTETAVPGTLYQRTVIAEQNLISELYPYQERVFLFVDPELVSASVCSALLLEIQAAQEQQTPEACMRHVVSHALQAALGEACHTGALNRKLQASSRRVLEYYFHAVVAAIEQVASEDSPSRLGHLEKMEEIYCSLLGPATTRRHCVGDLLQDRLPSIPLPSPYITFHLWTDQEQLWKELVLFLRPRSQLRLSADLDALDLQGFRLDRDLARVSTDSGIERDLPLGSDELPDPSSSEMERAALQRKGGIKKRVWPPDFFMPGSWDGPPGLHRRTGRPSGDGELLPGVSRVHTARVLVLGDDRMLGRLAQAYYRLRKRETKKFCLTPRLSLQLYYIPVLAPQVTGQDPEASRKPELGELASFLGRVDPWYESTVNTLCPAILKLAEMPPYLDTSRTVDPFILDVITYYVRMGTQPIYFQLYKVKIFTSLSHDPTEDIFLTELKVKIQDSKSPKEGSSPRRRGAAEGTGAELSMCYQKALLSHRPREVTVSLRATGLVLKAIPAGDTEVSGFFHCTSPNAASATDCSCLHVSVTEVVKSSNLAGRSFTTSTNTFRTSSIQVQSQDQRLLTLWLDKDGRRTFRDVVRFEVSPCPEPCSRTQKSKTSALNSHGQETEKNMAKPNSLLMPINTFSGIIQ

B1: Nanobody NB7-PIK3CG (VHH)
VHH: QVQLVESGGGLVQPGGSLRLSCAASGSIFSINAMGWYRQAPGKQRELVAHITSGGSTNYADSVKGRFTISRDNAKNTVYLQMNSLKPEDTAVYYCNEAGDPFLGSTWNGPPAFGSWGQGTQVTVSS
For B1, the Kd (p110γ-p84 complex) was 3 nM and the Kd (p110γ-p101 complex) was 3.1 nM.
